# According to patent WO2000075333A1 (dated 2000):
# T1: CD20 (human, UniProt P11836 1-297)
# T1 construct: whole, on cells; also called CD20 antigen; CD20-positive Ramos cell line
# T1 sequence (looked up): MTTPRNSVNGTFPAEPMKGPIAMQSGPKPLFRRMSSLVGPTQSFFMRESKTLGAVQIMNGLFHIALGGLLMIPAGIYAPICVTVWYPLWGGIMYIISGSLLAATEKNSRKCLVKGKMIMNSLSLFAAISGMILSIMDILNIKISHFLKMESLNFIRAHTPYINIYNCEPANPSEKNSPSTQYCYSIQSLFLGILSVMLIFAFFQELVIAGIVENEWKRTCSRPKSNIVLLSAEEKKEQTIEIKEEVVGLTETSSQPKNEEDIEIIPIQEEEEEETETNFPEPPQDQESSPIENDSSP
# B1: B9E9 mAb (antibody, V domains shown)
# VH: QVQLVQSGAELVKPGASVKMSCKASGYTFTSYNMHWVKQTPGQGLEWIGAIYPGNGDTSYNQKFKGKATLTADKSSSTAYMQLSSLTSEDSAVYYCARAQLRPNYWYFDVWGAGTTVTVSS
# VL: DIVLSQSPAILSASPGEKVTMTCRASSSVSYMHWYQQKPGSSPKPWIYATSNLASGVPARFSGSGSGTSYSLTISRVEAEDAATYYCQQWISNPPTFGAGTKLELK
# Target: T1, CD20
# Test: saturation binding of radiolabeled mAb to Ramos cells (10^7 cells), nonlinear regression, concentrations adjusted for immunoreactivity
binder,measurement,value
B1,Kd,9.75 nM
